Values quoted from earlier work, collected in patent publication US20070299244A1, “Liposome allowing liposome-entrapped substance to escape from endosome” (Japan Science and Technology Agency, priority 2005, published 2007).
Read-outs that look alike come from different tables or passages of the source.

GALA: synthetic peptide comprising the amino acid sequence represented by SEQ ID NO:1 (AALAELAEALAEALHEALAEALAEALAAEW; Designed peptide called “GALA”)
Proportion of α helix structures (pH 5.0): about 70% | Proportion of α helix structures (pH 7.4): about 20%
